The target in this test is T1, TNFR1 (Homo sapiens, UniProt P19438).
T1 chain: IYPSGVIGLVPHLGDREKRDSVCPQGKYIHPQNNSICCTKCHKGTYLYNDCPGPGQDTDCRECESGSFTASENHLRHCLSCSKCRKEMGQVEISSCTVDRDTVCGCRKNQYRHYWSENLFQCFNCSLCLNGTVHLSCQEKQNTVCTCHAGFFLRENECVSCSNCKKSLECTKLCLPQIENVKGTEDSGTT
Kind of test: yeast display SC50.

Residue numbers refer to the chain shown, from its start. Numbers in names are those of the source.

B1: E34G (designed binder)
chain: SMEEEVEKAAKEYEKKKKEAIEKHLEKLKAKDKGAAERFLKELEEAAKEYAKDEAKTMSEEEAKRRAKKYKEKVLLSELSEEEQKEIKEAEEKLVRTILKYVEEAAK
As to B1, the “apparent Kd (screen)” value turned out to be 0.405 nM.

B2: Y70G (designed binder)
chain: B1 chain with G34E, Y70G
With B2, the “apparent Kd (screen)” value worked out at 3.99 nM.

B3: Y101P (designed binder)
chain: B1 chain with G34E, Y101P
With B3, the “apparent Kd (screen)” value was determined as 0.405 nM.

B4: E19T (designed binder)
chain: B1 chain with E19T, G34E
As to B4, the “apparent Kd (screen)” value is 0.49 nM.

B5: V6K (designed binder)
chain: B1 chain with V6K, G34E
For the molecule B5, the “apparent Kd (screen)” value came to 1.54 nM.

B6: K31C (designed binder)
chain: B1 chain with K31C, G34E
As for B6, the “apparent Kd (screen)” value was determined as 1.27 nM.

B7: K33M (designed binder)
chain: B1 chain with K33M, G34E
Turning to B7, the “apparent Kd (screen)” value was found to be 0.593 nM.

B8: E7L (designed binder)
chain: B1 chain with E7L, G34E
With B8, the “apparent Kd (screen)” value was 11.4 nM.

B9: A51C (designed binder)
chain: B1 chain with G34E, A51C
For the molecule B9, the “apparent Kd (screen)” value is 0.446 nM.

B10: K73E (designed binder)
chain: B1 chain with G34E, K73E
With B10, the “apparent Kd (screen)” value is 11.4 nM.

B11: K31L (designed binder)
chain: B1 chain with K31L, G34E
B11: the “apparent Kd (screen)” value was 0.49 nM.

B12: V74K (designed binder)
chain: B1 chain with G34E, V74K
Turning to B12, the “apparent Kd (screen)” value was determined as 6.43 nM.

B13: E82P (designed binder)
chain: B1 chain with G34E, E82P
As for B13, the “apparent Kd (screen)” value stood at 1.16 nM.

B14: E49M (designed binder)
chain: B1 chain with G34E, E49M
Turning to B14, the “apparent Kd (screen)” value was 12.5 nM.

B15: I98G (designed binder)
chain: B1 chain with G34E, I98G
Take B15: the “apparent Kd (screen)” value is 6.43 nM.

B16: K93R (designed binder)
chain: B1 chain with G34E, K93R
In the case of B16, the “apparent Kd (screen)” value turned out to be 0.593 nM.

B17: E45R (designed binder)
chain: B1 chain with G34E, E45R
Regarding B17, the “apparent Kd (screen)” value was found to be 6.43 nM.

B18: A51R (designed binder)
chain: B1 chain with G34E, A51R
For the molecule B18, the “apparent Kd (screen)” value came out at 0.49 nM.

B19: V6S (designed binder)
chain: B1 chain with V6S, G34E
For B19, the “apparent Kd (screen)” value was 1.4 nM.

B20: E45C (designed binder)
chain: B1 chain with G34E, E45C
For B20, the “apparent Kd (screen)” value was found to be 1.27 nM.

B21: K15T (designed binder)
chain: B1 chain with K15T, G34E
Turning to B21, the “apparent Kd (screen)” value is 0.653 nM.

B22: K56G (designed binder)
chain: B1 chain with G34E, K56G
As to B22, the “apparent Kd (screen)” value worked out at 7.07 nM.

B23: E83N (designed binder)
chain: B1 chain with G34E, E83N
Take B23: the “apparent Kd (screen)” value worked out at 0.79 nM.

B24: H24M (designed binder)
chain: B1 chain with H24M, G34E
B24: the “apparent Kd (screen)” value came out at 0.49 nM.

B25: I98C (designed binder)
chain: B1 chain with G34E, I98C
For the molecule B25, the “apparent Kd (screen)” value turned out to be 6.43 nM.

B26: A30F (designed binder)
chain: B1 chain with A30F, G34E
B26: the “apparent Kd (screen)” value stood at 0.869 nM.

B27: A63R (designed binder)
chain: B1 chain with G34E, A63R
B27: the “apparent Kd (screen)” value is 6.43 nM.

B28: K8V (designed binder)
chain: B1 chain with K8V, G34E
For the molecule B28, the “apparent Kd (screen)” value was found to be 1.16 nM.

B29: K16V (designed binder)
chain: B1 chain with K16V, G34E
Take B29: the “apparent Kd (screen)” value amounted to 1.05 nM.

B30: E91P (designed binder)
chain: B1 chain with G34E, E91P
B30: the “apparent Kd (screen)” value amounted to 1.54 nM.

B31: Y50F (designed binder)
chain: B1 chain with G34E, Y50F
As for B31, the “apparent Kd (screen)” value was 13.8 nM.

B32: K15L (designed binder)
chain: B1 chain with K15L, G34E
B32: the “apparent Kd (screen)” value was 0.49 nM.

B33: L25A (designed binder)
chain: B1 chain with L25A, G34E
With B33, the “apparent Kd (screen)” value was determined as 0.593 nM.

B34: A51E (designed binder)
chain: B1 chain with G34E, A51E
As to B34, the “apparent Kd (screen)” value was 0.49 nM.

B35: E81F (designed binder)
chain: B1 chain with G34E, E81F
Consider B35, for which the “apparent Kd (screen)” value was 0.593 nM.

B36: K56Y (designed binder)
chain: B1 chain with G34E, K56Y
B36: the “apparent Kd (screen)” value was 3.99 nM.

B37: E7D (designed binder)
chain: B1 chain with E7D, G34E
On to B37, for which the “apparent Kd (screen)” value was determined as 0.956 nM.

B38: E82R (designed binder)
chain: B1 chain with G34E, E82R
As to B38, the “apparent Kd (screen)” value turned out to be 0.405 nM.

B39: R96D (designed binder)
chain: B1 chain with G34E, R96D
As for B39, the “apparent Kd (screen)” value was 10.4 nM.

B40: D53S (designed binder)
chain: B1 chain with G34E, D53S
With B40, the “apparent Kd (screen)” value amounted to 0.446 nM.

B41: F39H (designed binder)
chain: B1 chain with G34E, F39H
Take B41: the “apparent Kd (screen)” value was 4.39 nM.

B42: K107M (designed binder)
chain: B1 chain with G34E, K107M
Consider B42, for which the “apparent Kd (screen)” value came out at 1.4 nM.

B43: A63G (designed binder)
chain: B1 chain with G34E, A63G
Consider B43, for which the “apparent Kd (screen)” value turned out to be 11.4 nM.

B44: A90Y (designed binder)
chain: B1 chain with G34E, A90Y
Turning to B44, the “apparent Kd (screen)” value is 0.49 nM.

B45: R96C (designed binder)
chain: B1 chain with G34E, R96C
For B45, the “apparent Kd (screen)” value was determined as 2.48 nM.

B46: K73G (designed binder)
chain: B1 chain with G34E, K73G
B46: the “apparent Kd (screen)” value was 22.2 nM.

B47: E22K (designed binder)
chain: B1 chain with E22K, G34E
B47: the “apparent Kd (screen)” value worked out at 1.05 nM.

B48: E45D (designed binder)
chain: B1 chain with G34E, E45D
Take B48: the “apparent Kd (screen)” value amounted to 0.539 nM.

B49: E104S (designed binder)
chain: B1 chain with G34E, E104S
On to B49, for which the “apparent Kd (screen)” value is 0.718 nM.

B50: Y13H (designed binder)
chain: B1 chain with Y13H, G34E
Regarding B50, the “apparent Kd (screen)” value was 0.446 nM.

B51: K41E (designed binder)
chain: B1 chain with G34E, K41E
On to B51, for which the “apparent Kd (screen)” value worked out at 0.49 nM.

B52: S77Q (designed binder)
chain: B1 chain with G34E, S77Q
In the case of B52, the “apparent Kd (screen)” value stood at 1.27 nM.

B53: H24F (designed binder)
chain: B1 chain with H24F, G34E
For the molecule B53, the “apparent Kd (screen)” value was determined as 0.956 nM.

B54: K8I (designed binder)
chain: B1 chain with K8I, G34E
For the molecule B54, the “apparent Kd (screen)” value was 1.05 nM.

B55: L94I (designed binder)
chain: B1 chain with G34E, L94I
Turning to B55, the “apparent Kd (screen)” value was 0.405 nM.

The record behind these values is article PMC12416549 (2024).
